{
  "source": "paper PMC8730730",
  "key": {"SEC-MALS": {"assay": "SEC-MALS", "conditions": "glycan lost; control: native rshACE2"}, "[1]": {"assay": "Mca-Ala-Pro-Lys(Dnp) hydrolysis, spectrofluorimetry", "conditions": "glycan lost; control: native rshACE2"}},
  "data": [
    {"substance": "rshACE2 (recombinant soluble human ACE2, APN01): PNGase F (deglyco-rshACE2)", "values": [
      {"measurement": "oligomerisation", "setting": "SEC-MALS", "value": "no change"},
      {"measurement": "enzymatic_activity, percent_of_wt", "setting": "[1]", "value": "increases"}
    ]}
  ]
}
